From patent publication US20260055183A1

Target: triggering receptor expressed on myeloid cells 1 (TREM-1), human, on monocytes / PBMCs of healthy donors (human) (UniProt Q9NP99)
Assay: cell-based or functional assay

triggering receptor expressed on myeloid cells 1 (TREM-1), human, on monocytes / PBMCs of healthy donors (human), sequence (Q9NP99 21-234 limits assumed): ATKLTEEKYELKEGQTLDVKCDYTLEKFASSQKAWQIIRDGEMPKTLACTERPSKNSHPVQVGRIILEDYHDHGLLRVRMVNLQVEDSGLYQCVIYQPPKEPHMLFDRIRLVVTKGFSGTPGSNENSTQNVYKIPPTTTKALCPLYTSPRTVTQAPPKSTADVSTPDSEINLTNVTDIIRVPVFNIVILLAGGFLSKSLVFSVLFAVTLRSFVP
peptidoglycan-recognition-protein 1 (PGLYRP1), sequence (O75594 22-196 limits assumed): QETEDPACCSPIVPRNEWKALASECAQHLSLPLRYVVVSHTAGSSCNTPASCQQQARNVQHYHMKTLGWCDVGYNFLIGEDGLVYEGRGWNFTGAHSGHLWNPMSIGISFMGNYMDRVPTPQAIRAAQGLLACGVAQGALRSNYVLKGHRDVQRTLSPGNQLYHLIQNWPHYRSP

- Log2FC P + L vs P, ACOT7 mRNA in monocytes (log2 fold change): 2.23
- Log2FC P + L vs P, CD52 mRNA in monocytes (log2 fold change): 2.28
- Log2FC P + L vs P, CD55 mRNA in monocytes (log2 fold change): 2.39
- Log2FC P + L vs P, CDKN1A mRNA in monocytes (log2 fold change): 2.3
- Log2FC P + L vs P, CHI3L1 mRNA in monocytes (log2 fold change): 5.62
- Log2FC P + L vs P, CISH mRNA in monocytes (log2 fold change): 3.28
- Log2FC P + L vs P, CLEC12A mRNA in monocytes (log2 fold change): 2.94
- Log2FC P + L vs P, DHRS9 mRNA in monocytes (log2 fold change): 3.22
- Log2FC P + L vs P, EHD1 mRNA in monocytes (log2 fold change): 3.37
- Log2FC P + L vs P, FAM129A mRNA in monocytes (log2 fold change): 2.31
- Log2FC P + L vs P, GALNT6 mRNA in monocytes (log2 fold change): 2.09
- Log2FC P + L vs P, IFNLR1 mRNA in monocytes (log2 fold change): 3.07
- Log2FC P + L vs P, MFSD12 mRNA in monocytes (log2 fold change): 3.07
- Log2FC P + L vs P, MTMR11 mRNA in monocytes (log2 fold change): 2.58
- Log2FC P + L vs P, NAMPT mRNA in monocytes (log2 fold change): 3.47
- Log2FC P + L vs P, PIM2 mRNA in monocytes (log2 fold change): 2.71
- Log2FC P + L vs P, PLK3 mRNA in monocytes (log2 fold change): 2.67
- Log2FC P + L vs P, SLC27A3 mRNA in monocytes (log2 fold change): 2.74
- Log2FC P + L vs P, STARD4 mRNA in monocytes (log2 fold change): 2.56
- Log2Fc.P + L vs P, CCL1 mRNA in monocytes (log2 fold change): 8.39
- Log2Fc.P + L vs P, CCL20 mRNA in monocytes (log2 fold change): 8.73
- Log2Fc.P + L vs P, CXCL3 mRNA in monocytes (log2 fold change): 7.21
- Log2Fc.P + L vs P, F3 mRNA in monocytes (log2 fold change): 7.55
- Log2Fc.P + L vs P, IL6 mRNA in monocytes (log2 fold change): 9.16
- Log2Fc.P + L vs P, IL23A mRNA in monocytes (log2 fold change): 6.96
- Log2Fc.P + L vs P, IL24 mRNA in monocytes (log2 fold change): 6.66
- Log2Fc.P + L vs P, IL36G mRNA in monocytes (log2 fold change): 7.91
- Log2Fc.P + L vs P, ILIA (Interleukin 1, alpha) mRNA in monocytes (log2 fold change): 6.86
- Log2Fc.P + L vs P, ILIRN (Interleukin 1 receptor antagonist) mRNA in monocytes (log2 fold change): 7.28
- Log2Fc.P + L vs P, INHBA mRNA in monocytes (log2 fold change): 8.04
- Log2Fc.P + L vs P, MMP1 mRNA in monocytes (log2 fold change): 9.31
- Log2Fc.P + L vs P, MMP7 mRNA in monocytes (log2 fold change): 8.32
- Log2Fc.P + L vs P, MMP10 mRNA in monocytes (log2 fold change): 8.47
- Log2Fc.P + L vs P, OCSTAMP mRNA in monocytes (log2 fold change): 7.62
- Log2Fc.P + L vs P, PTGS2 mRNA in monocytes (log2 fold change): 8.32
- Log2Fc.P + L vs P, RGS16 mRNA in monocytes (log2 fold change): 7.52
- Log2Fc.P + L vs P, SCG5 mRNA in monocytes (log2 fold change): 8.09
- Log2Fc.P + L vs P, TFPI2 mRNA in monocytes (log2 fold change): 7.57
- Log2Fc.P + L vs P, TNFSF15 mRNA in monocytes (log2 fold change): 8.65
Substance: peptidoglycan-recognition-protein 1 (PGLYRP1) (from UniProt O75594 22-196) (ligand)
